One assay addresses T1, P2-AA-1HAA-D.
T1 chain: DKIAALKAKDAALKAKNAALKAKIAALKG
Description: two-hybrid library CCmax.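 Also: natural log of median RNA to DNA barcode read ratio; higher means stronger binding.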 Particulars: mean of both orientations.

In the next assay the target is T2, P2-AA-1HAA-I.
T2 chain: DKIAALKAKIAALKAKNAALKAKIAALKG
As to the kind of experiment: two-hybrid library CCmax.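 Also: natural log of median RNA to DNA barcode read ratio; higher means stronger binding.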 The settings on record: mean of both orientations.

A further assay has as its target T3, P2-AA-1HAA-K.
T3 chain: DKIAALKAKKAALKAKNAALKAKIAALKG
Description: two-hybrid library CCmax.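 Also: natural log of median RNA to DNA barcode read ratio; higher means stronger binding.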 Particulars: mean of both orientations.

For a further assay, the target named is T4, P2-AA-1HAA-L.
T4 chain: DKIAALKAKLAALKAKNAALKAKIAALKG
As to the kind of experiment: two-hybrid library CCmax.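 Also: natural log of median RNA to DNA barcode read ratio; higher means stronger binding.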 The settings on record: mean of both orientations.

The target of another assay is T5, P2-AA-1HAA-R.
T5 chain: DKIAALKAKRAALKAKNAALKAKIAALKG
As to the kind of experiment: two-hybrid library CCmax.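 Also: natural log of median RNA to DNA barcode read ratio; higher means stronger binding.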 The settings on record: mean of both orientations.

In another assay the target is T6, P2-AA-1HAA-S.
T6 chain: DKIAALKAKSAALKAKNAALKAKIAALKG
As to the kind of experiment: two-hybrid library CCmax.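 Also: natural log of median RNA to DNA barcode read ratio; higher means stronger binding.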 The settings on record: mean of both orientations.

For another assay, the target named is T7, P2-AA-1HAA-T.
T7 chain: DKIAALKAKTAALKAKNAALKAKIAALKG
Description: two-hybrid library CCmax. The settings on record: mean of both orientations.

For a further assay, the target named is T8, P2-AA.
T8 chain: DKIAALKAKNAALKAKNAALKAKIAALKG
As to the kind of experiment: two-hybrid library CCmax. Particulars: mean of both orientations.

In the next assay the target is T9, Core_NIII-es_KKEK.
T9 chain: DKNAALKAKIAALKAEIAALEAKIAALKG
Description: two-hybrid library CCmax. Particulars: mean of both orientations.

The target of another assay is T10, 4H1222-bA.
T10 chain: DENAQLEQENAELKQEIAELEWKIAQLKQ
As to the kind of experiment: two-hybrid library CCNG1.

A further assay has as its target T11, 4H1338-bA.
T11 chain: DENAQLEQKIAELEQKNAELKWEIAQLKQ
Description: two-hybrid library CCNG1.

In the next assay the target is T12, 4H1348-bA.
T12 chain: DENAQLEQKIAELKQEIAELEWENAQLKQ
Description: two-hybrid library CCNG1.

A further assay addresses T13, 4H1359-bA.
T13 chain: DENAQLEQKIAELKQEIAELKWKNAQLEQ
As to the kind of experiment: two-hybrid library CCNG1.

Another assay addresses T14, 4H1373-bA.
T14 chain: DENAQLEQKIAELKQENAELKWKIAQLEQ
Description: two-hybrid library CCNG1.

The next assay has as its target T15, 4H1393-bA.
T15 chain: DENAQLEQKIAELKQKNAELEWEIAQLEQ
As to the kind of experiment: two-hybrid library CCNG1.

In the next assay the target is T16, 4H1449-bA.
T16 chain: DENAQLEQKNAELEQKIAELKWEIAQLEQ
Description: two-hybrid library CCNG1.

The target of the next assay is T17, 4H1544-bA.
T17 chain: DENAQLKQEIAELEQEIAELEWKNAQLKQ
As to the kind of experiment: two-hybrid library CCNG1.

The next assay addresses T18, 4H1629-bA.
T18 chain: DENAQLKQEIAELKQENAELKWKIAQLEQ
As to the kind of experiment: two-hybrid library CCNG1.

The target of a further assay is T19, 4H1710-bA.
T19 chain: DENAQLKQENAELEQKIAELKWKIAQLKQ
As to the kind of experiment: two-hybrid library CCNG1.

Another assay has as its target T20, 4H1804-bA.
T20 chain: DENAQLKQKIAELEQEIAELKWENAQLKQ
As to the kind of experiment: two-hybrid library CCNG1.

For another assay, the target named is T21, 4H1899-bA.
T21 chain: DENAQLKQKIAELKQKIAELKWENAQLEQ
Description: two-hybrid library CCNG1.

A further assay deals with T22, 4H1985-bA.
T22 chain: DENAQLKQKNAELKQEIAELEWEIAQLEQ
As to the kind of experiment: two-hybrid library CCNG1.

The target of another assay is T23, 4H3129-bA.
T23 chain: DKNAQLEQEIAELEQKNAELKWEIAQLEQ
Description: two-hybrid library CCNG1.

The target in another assay is T24, 4H3172-bA.
T24 chain: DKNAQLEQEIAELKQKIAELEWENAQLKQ
As to the kind of experiment: two-hybrid library CCNG1.

In another assay the target is T25, 4H3414-bA.
T25 chain: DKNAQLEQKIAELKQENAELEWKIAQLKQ
Description: two-hybrid library CCNG1.

In another assay the target is T26, 4H3613-bA.
T26 chain: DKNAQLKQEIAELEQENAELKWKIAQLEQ
As to the kind of experiment: two-hybrid library CCNG1.

The target in the next assay is T27, 4H3628-bA.
T27 chain: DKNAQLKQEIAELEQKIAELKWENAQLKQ
As to the kind of experiment: two-hybrid library CCNG1.

The next assay concerns the target T28, 4H3631-bA.
T28 chain: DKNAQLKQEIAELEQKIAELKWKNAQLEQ
As to the kind of experiment: two-hybrid library CCNG1.

For a further assay, the target named is T29, 4H3638-bA.
T29 chain: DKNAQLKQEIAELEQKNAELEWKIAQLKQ
As to the kind of experiment: two-hybrid library CCNG1.

The next assay has as its target T30, 4H3817-bA.
T30 chain: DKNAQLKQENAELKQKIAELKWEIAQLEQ
Description: two-hybrid library CCNG1.

The target of a further assay is T31, 4H3858-bA.
T31 chain: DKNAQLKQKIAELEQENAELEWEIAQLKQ
Description: two-hybrid library CCNG1.

The next assay has as its target T32, 4H3974-bA.
T32 chain: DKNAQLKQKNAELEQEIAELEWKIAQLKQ
Description: two-hybrid library CCNG1.

The target in the next assay is T33, 4H570-bA.
T33 chain: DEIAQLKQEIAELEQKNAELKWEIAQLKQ
As to the kind of experiment: two-hybrid library CCNG1.

A further assay deals with T34, 4H584-bA.
T34 chain: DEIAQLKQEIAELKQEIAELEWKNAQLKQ
As to the kind of experiment: two-hybrid library CCNG1.

Another assay concerns the target T35, 4H619-bA.
T35 chain: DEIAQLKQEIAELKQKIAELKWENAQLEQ
As to the kind of experiment: two-hybrid library CCNG1.

For another assay, the target named is T36, 4H850-bA.
T36 chain: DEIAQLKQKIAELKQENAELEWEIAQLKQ
Description: two-hybrid library CCNG1.

The next assay deals with T37, 4H906-bA.
T37 chain: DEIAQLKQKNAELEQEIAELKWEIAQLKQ
As to the kind of experiment: two-hybrid library CCNG1.

A further assay addresses T38, Core_NNIN-es_KEEE.
T38 chain: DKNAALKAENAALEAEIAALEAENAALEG
As to the kind of experiment: two-hybrid library CCmax.

Data on four molecules can be found in article PMC10397247.

Take DEIAALEAEDAALEAENAALEAEIAALEG [P1-AA-1HAA-D]: the interaction score in the assay with P2-AA-1HAA-D stood at 0.443; in the assay with P2-AA-1HAA-I, 1.89; in the assay with P2-AA-1HAA-K it was 1.56; in the assay with P2-AA-1HAA-L it was 2.16; with P2-AA-1HAA-R, 1.66; in the assay with P2-AA-1HAA-S, 1.57. Moreover, the results for the interaction score in the assay with P2-AA-1HAA-T and with P2-AA were 1.59 and 2.18, respectively.
In the assay with Core_NIII-es_KKEK, DENAALEAEIAALEAKIAALKAEIAALEG [Core_NIII-es_EEKE] gave an interaction score of 2.17.
In the case of DENAQLEQENAELKQEIAELEWKIAQLKQ [4H1222-bA], the interaction score with 4H1222-bA was 0.532; with 4H1338-bA, 0.202; with 4H1348-bA, 0.605; with 4H1359-bA it was -0.0139; with 4H1373-bA, -0.665; in the assay with 4H1393-bA it was 0.0501. For the same molecule, the interaction score in the assay with 4H1449-bA is 0.729; in the assay with 4H1544-bA it was 0.517; with 4H1629-bA it was -0.826; with 4H1710-bA, 2.36; with 4H1804-bA, -0.0181; with 4H1899-bA, 1.1. Moreover, the interaction score was 1.8 in the assay with 4H1985-bA; -1.85 with 4H3129-bA; 0.388 with 4H3172-bA; -0.0927 with 4H3414-bA; -0.452 in the assay with 4H3613-bA; -0.374 with 4H3628-bA. Further, the interaction score with 4H3631-bA was 0.222; with 4H3638-bA, -0.958; with 4H3817-bA, 1.18; with 4H3858-bA, -0.31; with 4H3974-bA, 0.693; in the assay with 4H570-bA, 0.341. Besides, the interaction score in the assay with 4H584-bA is -1.36; with 4H619-bA, -1.01; in the assay with 4H850-bA, -0.2; in the assay with 4H906-bA, -0.403.
DENAALEAKNAALKAKIAALKAKNAALKG [Core_NNIN-es_EKKK] returned an interaction score in the assay with Core_NNIN-es_KEEE of 1.83.
